Tests used:
[1] = target: T1, human granulocyte macrophage colony-stimulating factor (GM-CSF) (human, UniProt P04141 18-144); experiment: SPR, Biacore 3000, mAb captured on anti-human IgG, GM-CSF as analyte, 25 C
T1 construct: also called rhGM-CSF
Protocol: The SPR experiments were performed at 25° C. on a Biacore 3000 (GE Healthcare, Piscataway, N.J.) using a CM5 sensor chip and HBS-P (10 mM HEPES, pH 7.4, 150 mM NaCl, 0.01% P-20) or HBS-EP (10 mM HEPES, pH 7.4, 150 mM NaCl, 3 mM EDTA, 0.01% P-20). Anti-human IgG (Fc) (GE Healthcare) or anti-human IgG (Southern Biotech, cat. #2040-01) was immobilized similarly on the experimental and reference flow cells using standard amine coupling. […] GM-CSF made in-house or purchased (Genscript, Cat. #Z00349), was injected over the mAb-coated cell and reference cell at the following concentrations: 100, 50, 25, 12.5, 6.25, 3.12, 1.5 and 0.8 nM. The flow rate was 30 μL/min and triplicate blank injections and replicate injections of the 12.5 nM GM-CSF were included to account for any drift and to ensure assay reproducibility. […] To regenerate the capture surface, two 30 sec pulses of a 2:1 mixture of glycine (pH 2) to 3 M MgCI was utilized. All data were double reference subtracted in that they were subtracted both from the reference cell and from a blank injection. Data were fit to a 1:1 model with (for those with very fast on-rates) or without a mass transport term using the Biacore 3000 evaluation software.

[2] = target: T1, human granulocyte macrophage …; experiment: cell-based or functional assay
[3] = target: T1, human granulocyte macrophage …; experiment: cell-based or functional assay; remark: listed apart in the source
[4] = target: T1, human granulocyte macrophage …; experiment: cell-based or functional assay; remark: listed apart in the source

T1 sequence (P04141 18-144 limits assumed): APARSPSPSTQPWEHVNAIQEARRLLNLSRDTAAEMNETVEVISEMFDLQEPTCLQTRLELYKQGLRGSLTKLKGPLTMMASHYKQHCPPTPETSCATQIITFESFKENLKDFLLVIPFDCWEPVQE

Kd [1]: 0.12 nM
koff [1]: 0.0001 s⁻¹
kon [1]: 830000 M⁻¹ s⁻¹
IC50 (read off the curve); CD11b on human neutrophils in whole blood with 10 ng/mL GM-CSF (FACS), % inhibition [2]: ~50 ng/mL
IC50, TF-1 assay [3]: < 1 ng/mL
IC50, TF-1 assay (200 pg/mL GM-CSF) [3]: 0.7 to 0.8 ng/mL
IC50 (ng/mL), TF-1 assay [4]: 0.8 ng/mL
B1: F1 human monoclonal antibody against GM-CSF (antibody, V domains shown)
VH: QVQLQESGPGVVKPSETLSLTCSVSDSAIRKYYWSWIRQPPGQGLEYIGYIYASGSSFYNPSFKSRVSMSVDATNNQFYLKLTSVTAADTAVYYCAAITGTTDLWGRGTLVTVSS
VL: DIQMTQSPSSVSASVGDRVTITCRASQGINRRLAWYQQKPGKAPKRLIYAVSTLQSGVPSRFNGSGSGTDFTLTVNNVQPDDLAMYFCLQSNNYPLTFGGGTKVEIK
notes: also called F1 antibody; purified F1

Reference: patent US20160024200A1 (published 2016)
